Assay: soluble on expression in E. coli; label from the status in PepcDB or PDB records

Sequence	soluble on expression in E. coli
MISRVAQMYFSEHKRQAEIAQHLNLSQATVSRMLKRAEAEGIVRTSIIPPPGTYSDLEAQLRERFDLPEAIVVDCSEDRDGAIMARIGEAAAHFLEVTLSQNEIIGVSSWSQTIFKMVENIHPLKGAKARYIVQTLGGMGDPSVQTHATQITTRLARLTEAEPKLLPVPGVATSREAKLLMLADPFVRETIDLFGSITLAIVGVGAVEPSELLARSGNIFSTKELADLAQAGAVGDISLRFFDKDGKPVKTPLDDRVIGLPLENLSNVDRVIALAGGLKKTEAIAGALRTGVIDVLVTDKFTAERLVGQET	not soluble
MAHHHHHHMTMRRFGGALTRPLGGMRRVVVGPNGSVPEAGCVPTFETRRRKRLRLGGSLTGDWVASTESLSGSCVREEEARLLCFEKYGFVHKPLTMASWSDFLQELARFEFRWRLLPCVGGVTVLNIVERNCGDENVLCDLRTSCGSAPFAQFFECLGAFVQGTSEKRCIMFCDPNGLEQSLEIRAKRHLSPALGEGFEDEKPILPTLAQYDCRGTLVDLVLKDMKTDVLRPIISDISMQALNYAFLVSIPLFLRQADVGVRNTDLVSKEQMRHFRFAWCFLRRESMMTPVEIGELDTLLPP	not soluble
MKGMFTPGNGPVQISAEAIKKRVEELGGEIARDYQGKTPHLICVLNGAFIFMADLVRAIPLPLTMDFIAISSYGNAFKSSGEVELLKDLRLPIHGRDVIVVEDIVDTGLTLSYLLDYLEARKPASVRVAALLSKPSRRQVEVPIHYLGFEIEDAYVYGYGLDRAQFDRNLPFITSIRPEEE	soluble
MIILKLEDSWGFQISKIAQEMDSQFSKKLTKYDIGSREYGILLTIHQYALLTQLKIGELNKVDRTTIGQLVDLLERKDFVARQKNPKDRRQNLLVLTKTGRSLAEEMWQEMKEIEKDVLKHLSAKQKETLLTMVKAIRKGELN	not soluble
MGSDKIHHHHHHMLVYIGNGHYCYSNSTAMFLSSIGENVSPQLVEILTGVGLGAMIEYEKNLYFSMRDPDDGINYALNILGFTAEEHQQASDLDDPFPLLKQQIKQNPVILGPLDMGELTYHPNHKNLNGSDHYVLGYQMDNENIYVQDPAGFPFVPLSLDQFKKAWMAERIPYRKGINKYWSTAKKVVTLDNNEIYERAIDYFKRTYRKFEKVDIGLIGREAICFYADQLLNAPITADTIRHTTFFLFQLSARRANDYAMYFKDRHSHLSVLKTEQAKVFGICHSMSVNKDWKGISEKLMKLADLEDNFRLELLKVGY	not soluble
MFQIGEHNMILIYKLTLTKLTEDELKKDFATIPSWATHLDLSNNRLGETSNEELIRVFAKIPGWISHIKLRFNNLGQKNGKDLAKAFAKIPISVTTLDLGSNQLGKKSGEELANAFAGIPTSVTRLILSQNELYKRTGGELATAFAKIPSSVTHLVLVNNGLGEKNGKELATAFANIPSSVTTLDLALNDLSKIKSTELAVIFTKIPTSVTQLDLSHNNLNKKSGKNLAKIFANIPTSVTNLNLSCNELGKKSGKGLAAAFAKIPTSVTDLNIEDNDLDNRTGKELAMAFAHIPAFVNTLRLGDNNLGNKSGEELAEIFAKIPLSVTSLDLRYNELGKRNGKELAIAFAKIPSSVTNLNLKFNHLGKITGEELAMAFANIPTNVDSLVLANNELGAKSGEELAKIFSKIPASITSLNMGNDWFAVIEKLSQQKMVLSTITHVVIDYSSAQEHSAKLKLLATVFPNLNKVTFMDIHGNNALAGQNPIEEAKWLKLCGIKNSVPSLLSQALFFVAKNKEHRSIQDYPSLLPKELTDSISSLLKC	not soluble
MAHHHHHHMADLYDVLGILHDAEDDAIAKAYRRHSMAVNPQCNPDHPDPAALEKQFKHVSQAYVVLSNPKARGIYDLYGEEGVRHGGTGAQGIPGGIDLDAIDPYAVFRSFFGVDNPFQVIGEINGLRNNRHNFFSSTAVIPKSLVKAPSIEVQLPVTLEDVYYGAVRRASWKCSFVRQGNETVVEEFFELRVPKGAHAGDKFVVDGKGDWEEGRARGDVVVVLELLPHERFRREGDDLVVRVPITLREALCGVTLTVQTMEGTDVAVLIDEIVHPKYSRRVVGQGLPRNDEPSNPRGDLIVECDTTFPGFLTLEQKSELSRILDAK	not soluble
MVSLTMVPIDALLSKEVNAFIVQHKHASVAELMLRMPVFTVDSRWIAAQIEGWQKASQKLPLWASTENIIYPIRLSMEQCSSERTAHYKSTLMSGERLVDLTGGFGVDSFYLSKSFNEVIYIEQQEDLAEIAAHNFSTLNQNNIVVKTADSDEYLKDIAEKIDVIFLDPARRKEMRKVYKLSDCEPNVVALQSFYFSKADVILIKTSPMLDITEATRQLTGIKEIHVVSVDNECKEVLYLLEKNYSGKATYICAHDYKKQLQLFSFTIAAEQAVTLSYSAPLAYLYEPNPSILKAGGFNSITQKYEVFKLHASSHLYTSASEVSDFPGRTFKIKETVGYSKKDIQAAVPGGKANIQTRNFPDSVEAIRKKTGLKDGGNIFIFATTLHDLSKVLLICEKI	not soluble
MGSDKIHHHHHHMGNILWVASYPKSGNTWVRAFLENYIQNAEQGVDINTMHKISTAESAAHRFQARLQDGRKTTDLSLDEICALRPAVQADIAMQAHGTTFVKTHNYLGTYKEYPLHNSSVTSGSIYIVRNPLDVTVSMANYFGYSIDETIAYMAEEMTGTPNEPENVPQVITSWSMHVSSWTQNPEEAKLVLRYEDILDDPKKVFRKIESFLGLKKDPNRLKNAIKHSSFAQLKAQESKRGFVEKHENAKSFFRQGSKNQWRQVLSDEQVAKIVEHHGEQMARFKYLPGKLR	not soluble
MSLSIFSHFQERFEATRQEEYSLQEYLDLCKQDKTAYASAAERLLMAIGEPELLDTSVDSRLSRIFSNKVIRRYPAFADFHGMEECIDQIVAFFRHAAQGLEEKKQILYLLGPVGGGKSSLAEKLKQLMEKVPFYAIKGSPVFESPLGLFNPDEDGAILEEDYGIPRRYLRSIMSPWATKRLNEFGGDISQFRVVKLYPSILNQIAIAKTEPGDENNQDISALVGKVDIRKLEEYPQNDADAYSYSGALCRANQGLMEFVEMFKAPIKVLHPLLTATQEGNYNSTEGLGALPYSGIILAHSNESEWHSFRNNKNNEAFIDRIYIVKVPYCLRVADEIKIYDKLLVNSSLAHAHCAPDTLKMLSQFSVLSRLKEPENSNIYSKMRVYDGENLKDTDPKAKSIQEYRDSAGVDEGMAGLSTRFAFKILSKVFNFDPHEVAANPVHLLYVLEQQIEQEQFQPETRERYLRFIKEYLAPRYVEFIGKEIQTAYLESYSEYGQNIFDRYVLYADFWIQDQEYRDPETGEILNRAALNEELEKIEKPAGISNPKDFRNEIVNFVLRARAGNNGKNPSWLSYEKLRVVIEKKMFSNTEDLLPVISFNAKASKEDQQKHNDFVKRMVERGYTEKQVRLLSEWYMRVRKSQEGHHHHHH	soluble
MLDFAQLPPEVNSALMYAGPGSGPMLAAAAAWEALAAELQTTASTYDALITGLADGPWQGSSAASMVAAATPQVAWLRSTAGQAEQAGSQAVAAASAYEAAFFATVPPPEIAANRALLMALLATNFLGQNTAAIAATEAQYAEMWAQDAAAMYGYAGASAAATQLSPFNPAAQTINPAGLASQAASVGQAVSGAANAQALTDIPKALFGLSGIFTNEPPWLTDLGKALGLTGHTWSSDGSGLIVGGVLGDFVQGVTGSAELDASVAMDTFGKWVSPARLMVTQFKDYFGLAHDLPKWASEGAKAAGEAAKALPAAVPAIPSAGLSGVAGAVGQAASVGGLKVPAVWTATTPAASPAVLAASNGLGAAAAAEGSTHAFGGMPLMGSGAGRAFNNFAAPRYGFKPTVIAQPPAGG	not soluble
GPGSMTGPFRYVITDMDGTLLSPDHFVSDYTRDTLKTLVHEHGVIPILATGRSYADVRIIADNLKAYIWCDGTAAPGARAPASPSRAPVIYLITSNGATVHNGVTHEVVFRTSIDPALAEKLLQLLPSDEEVVNTNAYQNDDWVCRIDWPKMMAVSKESGIRFIHVPHPLPSSSCALGSAAASPDAAARGIAIGDYTGISKIFFITDDAARLAALADEVHAIAKAHGGAPVSLTFSMSDCMDIMANGVTKGEALKRLFGAILPSRDGVDVVADALAHAIAFGDGLNDAEMLASVGKGCVMGNANPKLIAQHPELEVILTNAEDGVAKKLRSAFHLPL	soluble
MHHHHHHSSGVDLGTENLYFQSMQGTNPYLTFHCVNQGTILLDLAPEDKEYQSVEEEMQSTIREHRDGGNAGGIFNRYNVIRIQKVVNKKLRERFCHRQKEVSEENHNHHNERMLFHGSPFINAIIHKGFDERHAYIGGMFGAGIYFAENSSKSNQYVYGIGGGTGCPTHKDRSCYICHRQMLFCRVTLGKSFLQFSTIKMAHAPPGHHSVIGRPSVNGLAYAEYVIYRGEQAYPEYLITYQIMKPEAPSQTATAAEQ	soluble
MERQVFIRLRHRLEADPDELILLGHIAQVAGDRGYKEKLERLPIYQVSKADQSMVVLDVMKVIEAVHKSFPDLDVQTVGGSETIVEIQYPKRDLSP	soluble
MGSDKIHHHHHHMDSKHSMISLKQKLSGLLDVIPKQSEIIYADYPLYGNVGDLFIMKGTEAFFKEHGIRVRKRWNPDNFPIGRKLDPNLIIVCQGGGNFGDLYPYYQGFREKIVQTYPNHKIVILPQSIYFQNKDNLKRTAEIFSKHANLHIMTREKASYATAQAYFTTNHIQLLPDMAHQLFPVIPTQQPSNQKLRFIRTDHEANQALQEHAEAESYDWRTVLSASDRRTIAFLQTLNVLNKKAGNPLPIAYIWEKYSDYIVQKAIRFFSRYESVETSRLHGHILSSLLQKENTVIDNSYGKNANYFHTWMEGVPSTRLIQHASKKENLPAHM	not soluble
DLVPQIIWTGSSDGFIDYYNKRWYEYTGFDGKAFGDKSWVPVMHPDDVQEVLDCWYGSVKKGTPYQIELRMKSAETGEYRWFLSKALPIKDKTGVITKWFGTCTDI	not soluble
TDKVTDADLETLRKLQEEFATELAISRGRVDALEARSADIQAQQFSPNVVLGGQTIFGLAGGFGGNRPGDGEANTIFTYLTQLQLASSFTGKDRFRVGLISGNAANNSFENLQAFNTNMARLAWQGNYDNQVSINSVEYRVAGLGDRVVFTFKPVGFSLGSVLSPNSIYADAGQGAISAFAGSTPILRIGNLDAGLGFDWLLSDEIRLQFAYGTRGSSDSNQGLFGADHSALGLQFLYKPTPSLITGLAYINAYSSDGHLDTGTGSSNADTSGGINEPSQIHALNASMRWQLTNKLVLGAWGGVMVTDSLKSDAVVLSSTYTVSLGIYDPFGRKGDLFGFLYGLPPKLNNGVLIPTADTGNSTHYEVFYRYLVNDNIAITPGFFLVTDPGHISSNNDIFIGAIRTTFNF	not soluble
MNKVVLLCRPGFEKECAAEITDKAGQREIFGFARVKENAGYVIYECYQPDDGDKLIRELPFSSLIFARQWFVVGELLQHLPPEDRITPIVGMLQGVVEKGGELRVEVADTNESKELLKFCRKFTVPLRAALRDAGVLANYETPKRPVVHVFFIAPGCCYTGYSYSNNNSPFYMGIPRLKFPAEAPSRSTLKLEEAFHVFIPADEWDERLANGMWAVDLGACPGGWTYQLVKRNMWVYSVDNGPMAQSLMDTGQVTWLREDGFKFRPTRSNISWMVCDMVEKPAKVAALMAQWLVNGWCRETIFNLKLPMKKRYEEVSHNLAYIQAQLDEHGINAQIQARQLYHDREEVTVHVRRIWAAVGGRRDER	not soluble
MSLNIFNSVKKAEIHVHLEATITPDLCKKFAKRNNHEIPEEMFGSEYAYQWDDFYDFIKKYDIVTSVIHTPEDYFELTYEYLKDCAANNVLYVEAMISSTHAKEKGMTYNSFIEGVYEASKKAEEDFGIVSRYIMNGIRHLGPESVQGTAEEVLNNPHPCLVGFGLAGDELHFPPNLFVETFDMLKKENFPITVHAGEWDGPVNIRNAINLLHPTRLGHGVRSIEDPDLVKEIIDKDIILETCPTSNVATKIYKDYIDHPVKTLFDQGVKVTVNSDDPPFFKCTINGEYKVMEDLGEGHHHHHH	soluble

Source: the DeepSol protein solubility set
